In this data set the test system is Saccharomyces cerevisiae. The data set can be described thus: protein stability index of tFT-peptide fusion (C-terminal peptide) (PSI (0-1 scale)); higher = more stable (slower turnover). Conditions: temperature: 30 C. As for the experimental part:
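MPS profiling in S. cerevisiae of the yeast C-terminome library: the last 12 aa of each annotated ORF are fused to the C-terminus of a sfGFP-mCherry timer, after a GGGS linker. Cells are FACS-sorted into 8 mCherry/sfGFP bins and deep-sequenced. PSI runs from 0 (unstable) to 1 (stable); wild type and das1Δ backgrounds, two technical replicates each.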

Setting [1] is: genetic background: das1 deletion.

± gives the standard deviation of the averaged measurements.

Take ITLAELDVGDSE [CAF130 C-terminal 12 aa]: the protein stability index was 0.703 ± 0.03 under setting [1] and 0.7119 ± 0.0027 (genetic background: wild type).

On to ITNATFREIDDA [SEC12 C-terminal 12 aa], for which the protein stability index by setting is: under setting [1], 0.692 ± 0.0098; (genetic background: wild type) 0.671 ± 0.03.

Take “ITNFFRVLVRLV [YER067C-A C-terminal 12 aa]”: the protein stability index came out at 0.526 ± 0.024 under setting [1] and 0.155 ± 0.0039 (genetic background: wild type).

IVCGDGSIHWFQ [FAU1 C-terminal 12 aa]: the protein stability index under setting [1] was determined as 0.735 ± 0.0094 and the protein stability index (genetic background: wild type) turned out to be 0.769 ± 0.041.

As to “IVFTSVGAFNIL [YMR172C-A C-terminal 12 aa]”, the protein stability index is, setting by setting: under setting [1], 0.717 ± 0.016; (genetic background: wild type) 0.7349 ± 0.0029.

Regarding IVNIKILRRNSR [LDB16 C-terminal 12 aa], the protein stability index runs as follows: under setting [1], 0.796 ± 0.014; (genetic background: wild type) 0.7813 ± 0.003.

As for IVSFLSDETKSP [ECM18 C-terminal 12 aa], the protein stability index under setting [1] was 0.7282 ± 0.0009 and the protein stability index (genetic background: wild type) worked out at 0.714 ± 0.011.

For the sequence IWLVYKLYCFIF [CST26 C-terminal 12 aa], the protein stability index was found to be 0.3724 ± 0.0025 under setting [1] and 0.3155 ± 0.0014 (genetic background: wild type).

Take “IYVCGRLTNDRK [YIL171W-A C-terminal 12 aa]”: the protein stability index reads like this: under setting [1], 0.6871 ± 0.0066; (genetic background: wild type) 0.65 ± 0.015.

On to KAGEMVLKSLRR [SCP160 C-terminal 12 aa], for which the protein stability index runs as follows: under setting [1], 0.67 ± 0.028; (genetic background: wild type) 0.783 ± 0.017.

For the sequence KAKSRREGTTRT [STU2 C-terminal 12 aa], the protein stability index runs as follows: under setting [1], 0.7121 ± 0.0033; (genetic background: wild type) 0.694 ± 0.013.

Regarding KCEEVNDGLRWK [EHD3 C-terminal 12 aa], the protein stability index came out at 0.6964 ± 0.0049 under setting [1] and 0.711 ± 0.1 (genetic background: wild type).

Turning to KCLYVQVITKSN [ECM8 C-terminal 12 aa], the protein stability index worked out at 0.5487 ± 0.0052 under setting [1] and 0.256 ± 0.019 (genetic background: wild type).

For the sequence KDNTVDIYDVNG [TGS1 C-terminal 12 aa], the protein stability index reads like this: under setting [1], 0.687 ± 0.023; (genetic background: wild type) 0.682 ± 0.013.

On to KEYISDQRKKRK [LOA1 C-terminal 12 aa], for which the protein stability index runs as follows: under setting [1], 0.6823 ± 0.00078; (genetic background: wild type) 0.722 ± 0.023.

Consider KFLRYNPLEKRD [RPB10 C-terminal 12 aa], for which the protein stability index runs as follows: under setting [1], 0.693 ± 0.012; (genetic background: wild type) 0.704 ± 0.02.

As for KFNLVTQRENSL [YGR025W C-terminal 12 aa], the protein stability index was 0.697 ± 0.021 under setting [1] and 0.695 ± 0.026 (genetic background: wild type).

Consider KGGEDGSLVSSN [NHP10 C-terminal 12 aa], for which the protein stability index by setting is: under setting [1], 0.688 ± 0.014; (genetic background: wild type) 0.709 ± 0.011.

In the case of KGGLEGWVKSQL [LYS4 C-terminal 12 aa], the protein stability index is, setting by setting: under setting [1], 0.808 ± 0.018; (genetic background: wild type) 0.811 ± 0.074.

For the sequence KGRALENLPDES [SSM4 C-terminal 12 aa], the protein stability index reads like this: under setting [1], 0.675 ± 0.016; (genetic background: wild type) 0.692 ± 0.032.

Turning to KICEVAARQKWI [AAN1 C-terminal 12 aa], the protein stability index worked out at 0.6888 ± 0.0048 under setting [1] and 0.627 ± 0.02 (genetic background: wild type).

For KIEVSSQESWGN [HSP26 C-terminal 12 aa], the protein stability index is, setting by setting: under setting [1], 0.68 ± 0.0024; (genetic background: wild type) 0.693 ± 0.037.

For the sequence KINYDAIDGLFR [BRF1 C-terminal 12 aa], the protein stability index was 0.71 ± 0.013 under setting [1] and 0.681 ± 0.014 (genetic background: wild type).

As to KKGLLHKLKKKL [IST2 C-terminal 12 aa], the protein stability index runs as follows: under setting [1], 0.7257 ± 0.0041; (genetic background: wild type) 0.668 ± 0.045.

As for KKGRQERKLANR [PPZ2 C-terminal 12 aa], the protein stability index runs as follows: under setting [1], 0.689 ± 0.026; (genetic background: wild type) 0.683 ± 0.029.

Take KKKANIPKAKSA [HUT1 C-terminal 12 aa]: the protein stability index was 0.706 ± 0.0094 under setting [1] and 0.686 ± 0.013 (genetic background: wild type).

With KKKFSFFGKRKK [PAM1 C-terminal 12 aa], the protein stability index under setting [1] stood at 0.684 ± 0.017 and the protein stability index (genetic background: wild type) turned out to be 0.704 ± 0.048.

For the sequence KKKFYKQYHFDL [PDR8 C-terminal 12 aa], the protein stability index under setting [1] was 0.715 ± 0.016 and the protein stability index (genetic background: wild type) was found to be 0.727 ± 0.035.

In the case of KKKNKNKGKKKR [SRP21 C-terminal 12 aa], the protein stability index was 0.6857 ± 0.006 under setting [1] and 0.719 ± 0.048 (genetic background: wild type).

On to KKKSRMFSFRKS [UBP13 C-terminal 12 aa], for which the protein stability index by setting is: under setting [1], 0.702 ± 0.011; (genetic background: wild type) 0.709 ± 0.048.

For the sequence KKNDTPKPKPLK [SFC1 C-terminal 12 aa], the protein stability index by setting is: under setting [1], 0.7063 ± 0.00074; (genetic background: wild type) 0.678 ± 0.01.

For the sequence KKNRSGLRHSES [SQS1 C-terminal 12 aa], the protein stability index turned out to be 0.683 ± 0.011 under setting [1] and 0.6606 ± 0.0038 (genetic background: wild type).

Regarding KKPFDKKPKFNI [YKU70 C-terminal 12 aa], the protein stability index came to 0.727 ± 0.024 under setting [1] and 0.686 ± 0.017 (genetic background: wild type).

In the case of KLCTGIVWAPRV [YAR070C C-terminal 12 aa], the protein stability index was 0.681 ± 0.0084 under setting [1] and 0.7035 ± 0.0022 (genetic background: wild type).

As to KLDIPVSFLLAA [YBL053W C-terminal 12 aa], the protein stability index is, setting by setting: under setting [1], 0.443 ± 0.0065; (genetic background: wild type) 0.467 ± 0.044.

With KLKFLQNTYNND [CCE1 C-terminal 12 aa], the protein stability index was found to be 0.674 ± 0.015 under setting [1] and 0.635 ± 0.0079 (genetic background: wild type).

As to KLLGIFPNLSNF [YLL054C C-terminal 12 aa], the protein stability index runs as follows: under setting [1], 0.70477 ± 0.00046; (genetic background: wild type) 0.358 ± 0.0064.

KLYNYLLSIEVY [YLR123C C-terminal 12 aa] came in with a protein stability index under setting [1] of 0.144 ± 0.013 and a protein stability index (genetic background: wild type) of 0.191 ± 0.0098.

KMDKRAKNSDSA [RPL8A C-terminal 12 aa]: the protein stability index is, setting by setting: under setting [1], 0.691 ± 0.0034; (genetic background: wild type) 0.6886 ± 0.0018.

With KMLDALKNERKK [HTL1 C-terminal 12 aa], the protein stability index under setting [1] came to 0.716 ± 0.015 and the protein stability index (genetic background: wild type) was determined as 0.673 ± 0.038.

Turning to KMPLVPTHYYKQ [GCV1 C-terminal 12 aa], the protein stability index runs as follows: under setting [1], 0.706 ± 0.0089; (genetic background: wild type) 0.6559 ± 0.00066.

Regarding KNEQDEDKWDDF [GCS1 C-terminal 12 aa], the protein stability index worked out at 0.729 ± 0.031 under setting [1] and 0.672 ± 0.014 (genetic background: wild type).

KNIKRDLRNVRI [TAX4 C-terminal 12 aa] displayed a protein stability index under setting [1] of 0.7 ± 0.045 and a protein stability index (genetic background: wild type) of 0.6514 ± 0.0059.

Consider KNRYLHLLEQHK [BET4 C-terminal 12 aa], for which the protein stability index reads like this: under setting [1], 0.692 ± 0.018; (genetic background: wild type) 0.67 ± 0.04.

In turn, KPLLTSIFPNHK [YBL012C C-terminal 12 aa] showed a protein stability index under setting [1] of 0.718 ± 0.064 and a protein stability index (genetic background: wild type) of 0.667 ± 0.0098.

For the sequence KPLYYRIYRFFC [MMP1 C-terminal 12 aa], the protein stability index reads like this: under setting [1], 0.764 ± 0.013; (genetic background: wild type) 0.537 ± 0.0091.

In the case of KQIAKQSSKMMK [VMR1 C-terminal 12 aa], the protein stability index is, setting by setting: under setting [1], 0.686 ± 0.0041; (genetic background: wild type) 0.708 ± 0.03.

As to KQKKQQAQPLRK [VRG4 C-terminal 12 aa], the protein stability index is, setting by setting: under setting [1], 0.704 ± 0.012; (genetic background: wild type) 0.673 ± 0.026.

As for KQLQEGNRRHKL [DCI1 C-terminal 12 aa], the protein stability index worked out at 0.768 ± 0.0084 under setting [1] and 0.808 ± 0.15 (genetic background: wild type).

Turning to KSEEAKKRTSLY [YBR124W C-terminal 12 aa], the protein stability index by setting is: under setting [1], 0.694 ± 0.013; (genetic background: wild type) 0.679 ± 0.023.
